Measurements taken from patent US7811569.

Target: native MSP-3 antigen of Plasmodium falciparum clone 3D7 schizonts and merozoites (Plasmodium falciparum)
Test: flow cytometry on ethanol-fixed permeabilized schizonts, FITC anti-human Fab

| percent of events under the bar M1 | Substance |
| --- | --- |
| 2% | control Fab against HibCP |
| 4% | control antibody against HibCP in the IgG1 format |
